Source: IntAct's records for PubMed 21816275

B1: Septum site-determining protein MinD (Escherichia coli (strain K12)), P0AEZ3 (parent)
chain: MARIIVVTSGKGGVGKTTSSAAIATGLAQKGKKTVVIDFDIGLRNLDLIMGCERRVVYDFVNVIQGDATLNQALIKDKRTENLYILPASQTRDKDALTREGVAKVLDDLKAMDFEFIVCDSPAGIETGALMALYFADEAIITTNPEVSSVRDSDRILGILASKSRRAENGEEPIKEHLLLTRYNPGRVSRGDMLSMEDVLEILRIKLVGVIPEDQSVLRASNQGEPVILDINADAGKAYADTVERLLGEERPFRFIEEEKKGFLKRLFGG

Variants of: B1
Conditions: with mine_ecoli minE

Variant	effect of a mutation on the interaction
MARIIVVTSGKGGVGKTTSSAAIATGLAQKGKKTVVIDFDIGLRNLDLIMGCERRVVYDFVNVIQGDATLNQALIKDKRTENLYILPASQTRDKDALTREGVAKVLDDLKAMDFEFIVCDSPAGIETGALMALYFADEAIITTNPEVSSVRDSDRILGILASKSRRAENGEEPIKEHLLLTRYNPGRVSRGYMLSMEDVLEILRIKLVGVIPEDQSVLRASNQGEPVILDINADAGKAYADTVERLLGEERPFRFIEEEKKGFLKRLFGG [D192Y]	disrupting interaction
MARIIVVTSGKGGVGKTTSSAAIATGLAQKGKKTVVIDFDIGLRNLDLIMGCERRVVYDFVNVIQGDATLNQALIKDKRTENLYILPASQTRDKDALTREGVAKVLDDLKAMDFEFIVCDSPAGIETGALMALYFADEAIITTNPEVSSVRDSDRILGILASKSRRAENGEEPIKEHLLLTRYNPGRVSRGDLLSMEDVLEILRIKLVGVIPEDQSVLRASNQGEPVILDINADAGKAYADTVERLLGEERPFRFIEEEKKGFLKRLFGG [M193L]	disrupting interaction
MARIIVVTSGKGGVGKTTSSAAIATGLAQKGKKTVVIDFDIGLRNLDLIMGCERRVVYDFVNVIQGDATLNQALIKDKRTENLYILPASQTRDKDALTREGVAKVLDDLKAMDFEFIVCDSPAGIETGALMALYFADEAIITTNPEVSSVRDSDRILGILASKSRRAENGEEPIKEHLLLTRYNPGRVSRGDMLSMERVLEILRIKLVGVIPEDQSVLRASNQGEPVILDINADAGKAYADTVERLLGEERPFRFIEEEKKGFLKRLFGG [D198R]	disrupting interaction
MARIIVVTSGKGGVGKTTSSAAIATGLAQKGKKTVVIDFDIGLRNLDLIMGCERRVVYDFVNVIQGDATLNQALIKDKRTENLYILPASQTRDKDALTREGVAKVLDDLKAMDFEFIVCDSPAGIETGALMALYFADEAIITTNPEVSSVRDSDRILGILASKSRRAENGEEPIKEHLLLTRYNPGRVSRGDMLSMEDVLEILRIKLVGVIPEDQSVLRASAQGEPVILDINADAGKAYADTVERLLGEERPFRFIEEEKKGFLKRLFGG [N222A]	disrupting interaction
MARIIVVTSGKGGVGKTTSSAAIATGLAQKGKKTVVIDFDIGLRNLDLIMGCERRVVYDFVNVIQGDATLNQALIKDKRTENLYILPASQTRDKDALTREGVAKVLDDLKAMDFEFIVCDSPAGIETGALMALYFADEAIITTNPEVSSVRDSDRILGILASKSRRAENGEEPIKEHLLLTRYNPGRVSRGDMLSMEDVLEILRIKLVGVIPEDQSVLRASNQCEPVILDINADAGKAYADTVERLLGEERPFRFIEEEKKGFLKRLFGG [G224C]	disrupting interaction
